Assay results: patent publication US20210301018A1 (ITABMED HK, published 2021)

T1: human CD19 on cells (human B lymphocytes; Raji, Daudi and Reh tumor cells) (human, UniProt P15391 20-556)
T1 sequence (looked up): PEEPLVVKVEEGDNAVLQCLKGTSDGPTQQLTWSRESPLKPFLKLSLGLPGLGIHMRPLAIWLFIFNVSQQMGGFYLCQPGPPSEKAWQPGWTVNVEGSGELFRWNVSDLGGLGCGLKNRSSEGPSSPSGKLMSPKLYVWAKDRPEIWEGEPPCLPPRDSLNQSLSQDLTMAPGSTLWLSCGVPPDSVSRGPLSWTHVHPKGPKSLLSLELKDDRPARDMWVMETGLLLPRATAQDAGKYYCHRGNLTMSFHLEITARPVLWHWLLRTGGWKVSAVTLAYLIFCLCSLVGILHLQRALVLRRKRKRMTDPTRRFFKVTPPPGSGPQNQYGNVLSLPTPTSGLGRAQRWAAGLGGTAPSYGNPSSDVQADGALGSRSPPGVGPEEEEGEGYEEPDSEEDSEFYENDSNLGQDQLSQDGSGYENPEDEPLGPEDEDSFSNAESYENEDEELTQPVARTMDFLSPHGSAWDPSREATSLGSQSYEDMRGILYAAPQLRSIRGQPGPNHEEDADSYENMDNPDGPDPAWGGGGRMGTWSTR

T2: cynomolgus monkey CD19 on cynomolgus monkey B lymphocytes (cynoPBMC) (cynomolgus monkey, UniProt A0A2K5W8L9 20-557)
T2 sequence: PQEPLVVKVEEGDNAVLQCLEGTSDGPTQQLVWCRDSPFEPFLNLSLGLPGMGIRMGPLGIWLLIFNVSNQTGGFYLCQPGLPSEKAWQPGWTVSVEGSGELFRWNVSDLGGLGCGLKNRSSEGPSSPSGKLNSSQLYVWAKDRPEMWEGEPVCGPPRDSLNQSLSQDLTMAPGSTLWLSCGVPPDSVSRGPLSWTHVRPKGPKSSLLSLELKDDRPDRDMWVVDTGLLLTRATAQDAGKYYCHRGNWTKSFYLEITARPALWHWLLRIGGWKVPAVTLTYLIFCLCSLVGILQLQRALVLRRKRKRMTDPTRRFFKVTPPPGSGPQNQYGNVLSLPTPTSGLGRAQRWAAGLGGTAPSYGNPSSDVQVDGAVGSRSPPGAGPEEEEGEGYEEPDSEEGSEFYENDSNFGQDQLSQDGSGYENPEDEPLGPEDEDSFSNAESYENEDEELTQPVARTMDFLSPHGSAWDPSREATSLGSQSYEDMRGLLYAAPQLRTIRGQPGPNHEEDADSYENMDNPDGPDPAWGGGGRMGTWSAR

B1: CD19×CD3 bispecific antigen binding protein ITAB2003 (bispecific antibody)
chain: EVQLVESGGGLVQPGGSLRLSCAASGFTFNTYAMNWVRQAPGKGLEWVARIRSKYNNYATYYADSVKDRFTISRDDSKNTLYLQMNSLRAEDTAVYYCVRHGNFGNSYVSWFAYWGQGTMVTVSSGGGGSGGGGSGGGGSQAVVTQEPSLTVSPGGTVTLTCRSSTGAVTTSNYANWVQQKPGQAPRGLIGGTNKRAPGTPARFSGSLLGGKAALTLSGVQPEDEAEYYCALWYSNLWVFGGGTKLTVLGRAGGGQVQLVQSGPELIKPGGSVKMSCKASGYTFTSYVMHWVRQKPGQGLEWIGYINPYNDGTKYNEKFKGRATLTSDKSSSTAYMELSSLRSEDSAVYYCARGTYYYGSRVFDYWGQGTTVTVSSASTKGPSVFPLAPSSKSTSGGTAALGCLVKDYFPEPVTVSWNSGALTSGVHTFPAVLQSSGLYSLSSVVTVPSSSLGTQTYICNVNHKPSNTKVDKKVEPKSCPPCGGGGSHHHHHH
light: DVVMTQSPSSIPVTLGESVSISCRSSKSLLNSNGNTYLYWFQQRPGQSPQLLIYRMSNLASGVPDRFSGSGSGTDFTLRISGVEPEDVGVYYCMQHLEYPLTFGAGTKLEIKRTVAAPSVFIFPPSDEQLKSGTASVVCLLNNFYPREAKVQWKVDNALQSGNSQESVTEQDSKDSTYSLSSTLTLSKADYEKHKVYACEVTHQGLSSPVTKSFNRGECPPC
B2: CD19×CD3 bispecific antigen binding protein ITAB2005 (bispecific antibody)
chain: B1 chain
light: DVVMTQSPSSIPVTLGESVSISCRSSKSLQNVNGNTYLYWFQQRPGQSPQLLIYRMSNLNSGVPDRFSGSGSGTDFTLRISGVEPEDVGVYYCMQHLEYPITFGAGTKLEIKRTVAAPSVFIFPPSDEQLKSGTASVVCLLNNFYPREAKVQWKVDNALQSGNSQESVTEQDSKDSTYSLSSTLTLSKADYEKHKVYACEVTHQGLSSPVTKSFNRGECPPCS
B3: CD19×CD3 bispecific antigen binding protein ITAB2006 (bispecific antibody)
chain: EVQLVESGGGLVQPGGSLRLSCAASGFTFNTYAMNWVRQAPGKGLEWVARIRSKYNNYATYYADSVKDRFTISRDDSKNTLYLQMNSLRAEDTAVYYCVRHGNFGNSYVSWFAYWGQGTMVTVSSGGGGSGGGGSGGGGSQAVVTQEPSLTVSPGGTVTLTCRSSTGAVTTSNYANWVQQKPGQAPRGLIGGTNKRAPGTPARFSGSLLGGKAALTLSGVQPEDEAEYYCALWYSNLWVFGGGTKLTVLGRAGGGGAGGGGQVQLVQSGPELIKPGGSVKMSCKASGYTFTSYVMHWVRQKPGQGLEWIGYINPYNDGTKYNEKFKGRATLTSDKSSSTAYMELSSLRSEDSAVYYCARGTYYYGSRVFDYWGQGTTVTVSSASTKGPSVFPLAPSSKSTSGGTAALGCLVKDYFPEPVTVSWNSGALTSGVHTFPAVLQSSGLYSLSSVVTVPSSSLGTQTYICNVNHKPSNTKVDKRVEPKSCPPCGGGGSHHHHHH
light: B2 light

Assays:
Assay in all cases: cell-based or functional assay
[1] = target: T1, human CD19 on cells (human B …)
[2] = target: T2, cynomolgus monkey CD19 on cynomolgus …
[3] = target: T1, human CD19 on cells (human B …); remark: listed apart in the source
[4] = target: T2, cynomolgus monkey CD19 on cynomolgus …; remark: listed apart in the source

Binder	EC50 of CD19×CD3 BSAP mediated PBMC cytotoxicity against autologous B cells (human PBMC) [1]	EC50 of CD19×CD3 BSAP mediated PBMC cytotoxicity against autologous B cells (cynomolgus monkey PBMC) [2]	EC50 of CD19×CD3 BSAP mediated human PBMC cytotoxicity against Raji tumor cells [3]	cell killing activity relative to ITAB2003 (human PBMC against autologous B cells) [3]	cell killing activity relative to ITAB2003 (cynomolgus monkey PBMC against autologous B cells) [4]
B1	2.1 ng/mL	> 2090 ng/mL	0.49 ng/mL		
B2	0.3 ng/mL	33.5 ng/mL		≥ 7 fold	≥ 62 fold
B3	0.2 ng/mL	18.5 ng/mL		≥ 7 fold	≥ 62 fold
